Columns and labels:
[1] = molecular target: T1, human CD88 (complement component 5a receptor 1) (human, UniProt P21730 1-350); experiment: flow cytometry on granulocytes, PE goat anti-rabbit secondary
T1 construct: Native antigen on granulocytes of lysed human whole blood / PBMC preparations, read by flow cytometry; also called C5AR1; native CD88 antigen expressed on granulocytes
T1 chain: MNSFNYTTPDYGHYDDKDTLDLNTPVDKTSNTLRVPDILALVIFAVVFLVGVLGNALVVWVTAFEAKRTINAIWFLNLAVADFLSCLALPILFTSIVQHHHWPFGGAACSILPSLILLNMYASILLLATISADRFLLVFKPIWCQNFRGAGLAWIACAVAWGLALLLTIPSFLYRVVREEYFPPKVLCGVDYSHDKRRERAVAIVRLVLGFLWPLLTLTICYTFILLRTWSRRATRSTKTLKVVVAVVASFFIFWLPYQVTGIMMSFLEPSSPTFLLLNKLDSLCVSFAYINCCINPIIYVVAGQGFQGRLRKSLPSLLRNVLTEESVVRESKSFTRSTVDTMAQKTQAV
Description: (§1) For cell surface staining with the parental rabbit anti-human CD88 mAb, PBMCs in PBS containing 2% BSA were mixed with parental rabbit anti-human CD88 mAbs at concentrations of 1 μg, 0.5 μg, 0.25 μg, 0.125 μg and 0.0625 μg as shown in FIG. 3 (A-E) and incubated for 1 hr at 4° C. The cells were washed with PBS containing 2% BSA and incubated at 4° C. for 30 minutes with BD Pharmingen PE Goat Anti-rabbit IgG (Cat No 558146). The cells were washed with PBS containing 2% BSA, and analyzed with a BD FACS Canto II Flow cytometer. Non-specific binding of the secondary anti-rabbit PE-conjugated antibody on the cells alone (primary antibody absent; FIG. 3F) and background autofluorescence by unstained cells (secondary antibody absent; FIG. 3G) served as negative controls for the assay. The % positive signal was detected.

[2] = molecular target: T1, human CD88 (complement component 5a …); experiment: flow cytometry on granulocytes, PE goat anti-rabbit IgG secondary
Description: as §1
The binding of the variant rabbit anti-human CD88 mAbs was assayed as for the parental mAb, and the results for four variants are shown in FIGS. 4-7. […] Panels F and G show fluorescence of the negative controls as described for the parental mAb. […] Panels F and G show fluorescence of the negative controls as described for the parental mAb. […] Panels F and G show fluorescence of the negative controls as described for the parental mAb. FIG. 7 (A-E) show the binding at concentrations of 1 ug, 0.5 ug, 0.25 ug, 0.125 ug and 0.0625 ug of a fourth variant mAb having a substitution R116A in the heavy chain and a substitution Y51F in the light chain CDRs. Panels F and G show fluorescence of the negative controls as described for the parental mAb.

B1: parental rabbit anti-human CD88 mAb (hybridoma cell line CD88 clone C85-4124) (antibody, V domains shown)
VH: QSVKESEGGLFKPADTLTLTCTVSGFSVNNKGVMWVRQAPGNGLEWIGSIGISGRVTYATWAKSRSTITRDTNLNTVTLKVTSLTVADTATYFCRIGSNIWGPGTLVTVSS
VL: ELVLTQTPSSVSAAVGGTVTINCQSSQSVYNNNLLAWYQQKPGQPPKLLIYQASTLDSGVPSRFKGSGTGTHFTLTISDLECDDAATYYCQGGYNGNGIAAFGGGTEVVVDG
notes: Rabbit monoclonal antibody
Does B1 bind [1]?
Result: binds

B2: Variant 1 rabbit anti-human CD88 mAb, R116A in heavy chain CDR-H3 (antibody, V domains shown)
VH: QSVKESEGGLFKPADTLTLTCTVSGFSVNNKGVMWVRQAPGNGLEWIGSIGISGRVTYATWAKSRSTITRDTNLNTVTLKVTSLTVADTATYFCAIGSNIWGPGTLVTVSS
VL: ELVLTQTPSSVSAAVGGTVTINCQSSQSVYNNNLLAWYQQKPGQPPKLLIYQASTLDSGVPSRFKGSGTGTHFTLTISDLECDDAATYYCQGGYNGNGIAAFGGGTEVVVDG
notes: No signal peptide limits are stated; also called first variant
Does B2 bind [2]?
Result: no binding

B3: Variant 2 rabbit anti-human CD88 mAb, Y51A in light chain CDR-L1 (antibody, V domains shown)
VH: QSVKESEGGLFKPADTLTLTCTVSGFSVNNKGVMWVRQAPGNGLEWIGSIGISGRVTYATWAKSRSTITRDTNLNTVTLKVTSLTVADTATYFCRIGSNIWGPGTLVTVSS
VL: ELVLTQTPSSVSAAVGGTVTINCQSSQSVANNNLLAWYQQKPGQPPKLLIYQASTLDSGVPSRFKGSGTGTHFTLTISDLECDDAATYYCQGGYNGNGIAAFGGGTEVVVDG
notes: Recombinant, made in 293F cells; also called second variant
Does B3 bind [2]?
Result: no binding

B4: Variant 3 rabbit anti-human CD88 mAb, R116A in heavy chain and Y51A in light chain (antibody, V domains shown)
VH: QSVKESEGGLFKPADTLTLTCTVSGFSVNNKGVMWVRQAPGNGLEWIGSIGISGRVTYATWAKSRSTITRDTNLNTVTLKVTSLTVADTATYFCAIGSNIWGPGTLVTVSS
VL: ELVLTQTPSSVSAAVGGTVTINCQSSQSVANNNLLAWYQQKPGQPPKLLIYQASTLDSGVPSRFKGSGTGTHFTLTISDLECDDAATYYCQGGYNGNGIAAFGGGTEVVVDG
notes: Recombinant double mutant, made in 293F cells; also called third variant
Does B4 bind [2]?
Result: no binding

B5: Variant 4 rabbit anti-human CD88 mAb, R116A in heavy chain and Y51F in light chain (antibody, V domains shown)
VH: QSVKESEGGLFKPADTLTLTCTVSGFSVNNKGVMWVRQAPGNGLEWIGSIGISGRVTYATWAKSRSTITRDTNLNTVTLKVTSLTVADTATYFCAIGSNIWGPGTLVTVSS
VL: ELVLTQTPSSVSAAVGGTVTINCQSSQSVFNNNLLAWYQQKPGQPPKLLIYQASTLDSGVPSRFKGSGTGTHFTLTISDLECDDAATYYCQGGYNGNGIAAFGGGTEVVVDG
notes: Recombinant double mutant, made in 293F cells; also called fourth variant
Does B5 bind [2]?
Result: no binding
